{"source": "paper PMC5925078", "key": {"membrane TNF": {"biological_target": "membrane TNF (UniProt P01375)", "assay": "cellular binding study with GpL (luciferase) fusion protein; reciprocal competition; memTNF-expressing HEK293 transfectants incubated 90 min with 100 ng/ml TNFR1ed-GpL or TNFR2ed-GpL, alone or mixed with 2,000 ng/ml sTNF or 2,000 ng/ml PGRNAdi; EV transfectants as non-specific binding"}, "TNFR1 ECD (Homo sapiens)": {"biological_target": "TNFR1 ECD (Homo sapiens) (UniProt P19438)", "assay": "SPR", "conditions": "cited from earlier work"}, "TNFR2 ECD (Homo sapiens)": {"biological_target": "TNFR2 ECD (Homo sapiens) (UniProt P20333)", "assay": "SPR", "conditions": "cited from earlier work"}}, "data": [{"substance": "TNFR1ed-GpL (from UniProt P19438 30-211) (receptor)", "values": [{"measurement": "specific binding, fold over background (the pair that is blocked)", "setting": "membrane TNF", "value": "> 2000", "unit": "fold"}]}, {"substance": "Progranulin (from UniProt P28799)", "values": [{"measurement": "Kd", "setting": "TNFR1 ECD (Homo sapiens)", "value": 1.77, "unit": "nM"}, {"measurement": "Kd", "setting": "TNFR2 ECD (Homo sapiens)", "value": 1.52, "unit": "nM"}]}, {"substance": "TNFR2ed-GpL (from UniProt P20333 23-257) (receptor)", "values": [{"measurement": "specific binding, fold over background (the pair that is blocked)", "setting": "membrane TNF", "value": "> 200", "unit": "fold"}]}]}
